In article PMC5772350:

Tests used:
[1] = molecular target: B5-GS3K (anti-CEA sdAb with C-terminal positively charged tail); test: SPR
[2] = molecular target: B5-Rhiz (anti-CEA sdAb fused C-terminally to rhizavidin); test: SPR

Activity (%) [1]: 14.3%
Activity (%) [2]: 5%
XA (RU), SPR response to 100 nM CEA [2]: 839 RU
Substance: Carcinoembryonic antigen (CEA) (from UniProt P06731 35-685) (natural protein)
